Data: paper doi:10.1101/481713

How the values were obtained:
[1] = molecular target: human Broccoli Ndc80-GFP construct (human) (UniProt O14777); assay: binding of microtubules to protein-coated beads seen by fluorescence microscopy
[2] = molecular target: Xenopus laevis CENP-E-GFP construct (1-473 aa) (Xenopus laevis); assay: as above
[3] = molecular target: human Broccoli Ndc80-GFP construct (human) (UniProt O14777)

Sequence of UniProt O14777 (O14777 whole entry, looked up, the tested form may be a part): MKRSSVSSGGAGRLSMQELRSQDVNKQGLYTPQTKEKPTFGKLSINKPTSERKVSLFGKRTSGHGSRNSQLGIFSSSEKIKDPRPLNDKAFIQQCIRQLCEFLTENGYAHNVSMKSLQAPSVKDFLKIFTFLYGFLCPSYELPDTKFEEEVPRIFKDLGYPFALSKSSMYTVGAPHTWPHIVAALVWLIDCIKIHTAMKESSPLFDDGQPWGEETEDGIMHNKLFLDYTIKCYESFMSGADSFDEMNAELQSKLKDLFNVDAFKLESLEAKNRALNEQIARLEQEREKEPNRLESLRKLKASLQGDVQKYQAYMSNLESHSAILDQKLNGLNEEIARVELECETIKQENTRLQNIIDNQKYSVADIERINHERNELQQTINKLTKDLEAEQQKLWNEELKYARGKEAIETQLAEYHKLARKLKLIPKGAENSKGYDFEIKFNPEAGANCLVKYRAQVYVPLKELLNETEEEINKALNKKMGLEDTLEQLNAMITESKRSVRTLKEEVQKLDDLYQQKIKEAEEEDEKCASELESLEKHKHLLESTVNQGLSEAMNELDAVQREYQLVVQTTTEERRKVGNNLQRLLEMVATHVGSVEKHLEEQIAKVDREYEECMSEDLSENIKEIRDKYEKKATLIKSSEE

percent of MT segments attached via their ends to beads coated with Ndc80 alone [1]: 3% | MT end-retention time [2]: 1.1 min | percent of MT plus-ends retained at the CENP-E–coated bead [2]: 24% | time within which >80% of MTs detached (Kaplan–Meier) [2]: < 2.5 min | reduction of CENP-E motor gliding velocity on beads by the Ndc80 coating [3]: 4 fold
Substance: microtubules polymerised from bovine brain tubulin (from UniProt Q6B856 1-445) (complex)
